First the molecules themselves.
T1: human CTGF (Homo sapiens, UniProt P29279, H83D)
T1 construct: purchased R&D Systems
T1 sequence (P29279 27-349 H83D): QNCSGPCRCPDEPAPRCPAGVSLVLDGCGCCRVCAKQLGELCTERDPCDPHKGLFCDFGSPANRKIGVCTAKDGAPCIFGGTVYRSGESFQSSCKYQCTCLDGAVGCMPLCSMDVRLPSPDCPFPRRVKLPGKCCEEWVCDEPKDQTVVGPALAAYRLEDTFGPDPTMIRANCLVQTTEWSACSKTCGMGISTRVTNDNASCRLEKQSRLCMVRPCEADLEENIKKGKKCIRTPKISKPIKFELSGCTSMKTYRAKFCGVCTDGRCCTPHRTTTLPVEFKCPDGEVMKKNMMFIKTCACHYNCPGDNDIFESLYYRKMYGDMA

T2: CTGF (Homo sapiens, UniProt P29279)
T2 sequence (P29279 27-349): T1 sequence (P29279 27-349 H83D) with D57H

T3: Rat CTGF (Rattus norvegicus, UniProt Q9R1E9)
T3 construct: purchased R&D Systems
T3 sequence (Q9R1E9 25-347): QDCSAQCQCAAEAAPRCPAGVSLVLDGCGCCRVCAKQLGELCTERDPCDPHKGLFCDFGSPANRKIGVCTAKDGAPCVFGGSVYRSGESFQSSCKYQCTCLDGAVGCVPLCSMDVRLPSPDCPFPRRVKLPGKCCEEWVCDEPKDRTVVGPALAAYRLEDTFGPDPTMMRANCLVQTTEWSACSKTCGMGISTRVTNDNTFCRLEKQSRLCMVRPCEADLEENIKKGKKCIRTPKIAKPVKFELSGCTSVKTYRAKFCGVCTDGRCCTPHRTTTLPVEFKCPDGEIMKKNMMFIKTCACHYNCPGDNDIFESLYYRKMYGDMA

B1: SEQ ID NO: 29: parent CTGF-binding hNGAL lipocalin mutein (protein)
chain: QDSTSDLIPAPPLSKVPLQQNFQDNQFHGKWYVVGWAGNIKLREDKDPFKMSATIYELKEDKSYNVTEVVFEQKKCHYIIKTFVPGSQPGEFTLGDIKSPPGETSSLVRVVSTNYNQHAMVFFKKVFQNREFFWITLYGRTKELTSELKENFIRFSKSLGLPENHIVFPVPIDQCIDG
modifications: lipocalin mutein
B2: SEQ ID NO: 3: parent CTGF-binding hNGAL lipocalin mutein (protein)
chain: QDSTSDLIPAPPLSKVPLQQNFQDNQFHGKWYVVGRAGNNRLREDKDPPKMWATIYELKEDKSYNVTHVHFMTKKCRYIIDTFVPGSQPGEFTLGAIKSGPGMTSPLVRIVSTNYNQHAMVFFKWVNQNREWFTITLYGRTKELTSELKENFIRFSKSLGLPENHIVFPVPIDQCIDG
modifications: lipocalin mutein
B3: SEQ ID NO: 25: parent CTGF-binding hNGAL lipocalin mutein (protein)
chain: QDSTSDLIPAPPLSKVPLQQNFQDNQFHGKWYVVGMAGNFRLREDKDPSKMGATIYELKEDKSYNVTQVQFDDKKCLYVIETFVPGSQPGEFTLGAIKSFPGFTSQLVRVVSTNYNQHAMVFFKKVYQNREVFWITLYGRTKELTSELKENFIRFSKSLGLPENHIVFPVPIDQCIDG
modifications: lipocalin mutein
B4: SEQ ID NO: 9: parent CTGF-binding hNGAL lipocalin mutein (protein)
chain: QDSTSDLIPAPPLSKVPLQQNFQDNQFHGKWYVVGLAGNKILRIDKQPAKMFATIYELKEDKSYDVTSVRFEARSCSYTIKTFVPGSQPGEFTAGNIKSAPGQTSTLVRVVSTNYNQHAMVFFKHVSQNRETFVITLYGRTKELTSELKENFIRFSKSLGLPENHIVFPVPIDQCIDG
modifications: lipocalin mutein
B5: SEQ ID NO: 7: parent CTGF-binding hNGAL lipocalin mutein (protein)
chain: QDSTSDLIPAPPLSKVPLQQNFQDNQFHGKWYVVGLAGNYGLRTDKRPSKMFATIYELKEDKSYDVTSVRFEQERCHYTIRTFVPGSQPGEFTTGSIKSRPGQTSSLVRVVSTNYNQHAMVFFKSVIQNREYFAITLYGRTKELTSELKENFIRFSKSLGLPENHIVFPVPIDQCIDG
modifications: lipocalin mutein
B6: SEQ ID NO: 23: optimized CTGF-binding hNGAL lipocalin mutein (protein)
chain: B4 chain with H28Q, L36V, K40A, I44P, R74K, S77K, A94S, N96Q, T132I
modifications: lipocalin mutein
B7: SEQ ID NO: 15: optimized CTGF-binding hNGAL lipocalin mutein (protein)
chain: B4 chain with H28Q, K40A, I44E, R74K, S77K, N96Y, S127T, T132I
modifications: lipocalin mutein
B8: SEQ ID NO: 74: fusion protein comprising two CTGF-binding lipocalin muteins (protein)
chain: QDSTSDLIPAPPLSKVPLQQNFQDNQFQGKWYVVGLAGNAILREDKQPAKMFATIYELKEDKSYDVTSVRFEAKSCKYTIKTFVPGSQPGEFTAGYIKSAPGQTSTLVRVVSTNYNQHAMVFFKHVTQNREIFVITLYGRTKELTSELKENFIRFSKSLGLPENHIVFPVPIDQCIDGGGGGSGGGGSGGGGSQDSTSDLIPAPPLSKVPLQQNFQDNQFQGKWYVVGWAGNVKLREDKQPQKMSATIYELKEDKSYDVTEVVFEQKKCHYIIKTFVPGSQPGEFTAGDIKSPPGYTSSLVRVVSTNYNQHAMVFFKKVSQNREFFWITLYGRTKELTSELKENFIRFSKSLGLPENHIVFPVPIDQCIDG
modifications: fusion protein

Substitutions are numbered along the chain they refer to.

For one test, the target named is T4, Murine CTGF (Mus musculus, UniProt P29268).
T4 construct: Fc (N); purchased Biozol
T4 sequence (P29268 with tags, fused parts or gaps): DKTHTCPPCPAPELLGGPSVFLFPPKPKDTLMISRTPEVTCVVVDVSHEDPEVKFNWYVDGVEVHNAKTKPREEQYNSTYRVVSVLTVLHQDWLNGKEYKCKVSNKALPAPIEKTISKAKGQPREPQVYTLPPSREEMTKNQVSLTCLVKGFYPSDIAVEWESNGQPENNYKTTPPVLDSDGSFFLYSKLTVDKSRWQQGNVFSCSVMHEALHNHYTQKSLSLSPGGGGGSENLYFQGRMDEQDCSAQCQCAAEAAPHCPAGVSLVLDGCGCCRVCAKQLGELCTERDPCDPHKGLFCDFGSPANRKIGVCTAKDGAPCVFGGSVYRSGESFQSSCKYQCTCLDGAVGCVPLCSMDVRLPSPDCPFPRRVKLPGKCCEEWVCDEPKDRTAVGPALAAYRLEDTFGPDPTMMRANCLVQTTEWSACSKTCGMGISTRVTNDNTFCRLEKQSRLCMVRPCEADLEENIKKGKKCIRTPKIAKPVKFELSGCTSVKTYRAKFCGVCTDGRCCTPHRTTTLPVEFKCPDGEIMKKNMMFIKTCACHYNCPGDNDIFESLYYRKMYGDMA
Nature of the test: ELISA binding to full-length murine CTGF (Example 9). Conditions: coated 1 μg/ml, muteins from 1000 nM. As to the method:
(§1) Binding of muteins to fragments of human and murine CTGF was tested by an ELISA assay. In detail, a 384-well plate suitable for fluorescence measurements (Greiner FLUOTRAC™ 600, black flat bottom, high-binding) was coated with 20 μl of human (R&D Systems, SEQ ID NO 79) and murine CTGF (Biozol, SEQ ID NO: 80) or fragments thereof (Evitria, huCTGF domains 1 and 2 with human Fc tag (SEQ ID NO 77) and muCTGF domains 1 and 2 with human Fc tag (SEQ ID NO 78)) at a concentration of 1 μg/ml in PBS over night at 4° C. After washing with PBS with 0.05% Tween 20, wells were blocked with 100 μl blocking buffer containing 0.1% Tween 20 and 2% BSA (PBS-T/BSA) for 1 h at room temperature. 20 μl of serially diluted muteins starting at 1000 nM were incubated in PBS-T/BSA for 1 h at room temperature.
(§2) The residual supernatants were discarded and 20 μl HRP-labeled anti-Strep-Tag antibody was added at a predetermined optimal concentration in PBS-T/BSA and incubated for 1 h at RT. After washing, 20 μl fluorogenic HRP substrate (QuantaBlu, Thermo) was added to each well, and the reaction was allowed to proceed for 5 to 25 minutes. The fluorescence intensity of every well on the plate was read using a fluorescence microplate reader (Tecan). Curve fitting was performed using GraphPad Prism 7 software.
(An ELISA detects its analyte on a solid surface through an enzyme-linked reagent.)
For the molecule B1, the “EC Murine CTGF” value is reported as “n.b”.
On the same count and under the same terms, the entry for B2 is “n.b”; for B3 it is “n.b”.

The test is the same for the next values; noted with them: coated 1 μg/ml, muteins from 1000 nM, read-out: EC Murine CTGF.
For the molecule B4, the EC50 amounted to 11 nM.
On the same count and under the same terms, the figure for B5 is 29 nM.

The next test deals with T1, human CTGF. In words: ELISA binding to full-length human CTGF (Example 9). Particulars: coated 1 μg/ml, muteins from 1000 nM, read-out: EC Human CTGF. As to the method:
as §1, §2
For the molecule B4, the EC50 came to 14 nM.
The same measure, in the same setting: the figure for B5 is 34 nM; for B1 it is 11 nM; for B2 it is 6.9 nM.
Same read-out and setting: the figure for B3 is 11 nM.

The target of the next test is T5, huCTGF domains 1 and 2 with human Fc tag (Homo sapiens, UniProt P29279).
T5 construct: purchased Evitria
T5 sequence (P29279 with tags, fused parts or gaps): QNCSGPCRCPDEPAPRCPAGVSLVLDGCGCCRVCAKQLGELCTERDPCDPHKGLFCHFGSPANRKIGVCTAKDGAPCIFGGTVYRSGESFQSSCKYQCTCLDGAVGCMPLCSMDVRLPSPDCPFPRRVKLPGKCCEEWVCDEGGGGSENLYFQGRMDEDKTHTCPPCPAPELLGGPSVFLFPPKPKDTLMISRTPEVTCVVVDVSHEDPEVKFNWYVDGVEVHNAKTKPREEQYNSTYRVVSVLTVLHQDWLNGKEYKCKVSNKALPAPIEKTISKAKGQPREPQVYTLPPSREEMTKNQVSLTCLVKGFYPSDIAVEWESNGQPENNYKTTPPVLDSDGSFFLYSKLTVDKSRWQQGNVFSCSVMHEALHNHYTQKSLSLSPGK
In words: ELISA binding to CTGF fragments, human CTGF domains 1 and 2. Conditions: coated 1 μg/ml, muteins from 1000 nM. The method, then: as §1, §2
As for B2, the “EC Human CTGF1-2-huFc” value is on record as “n.b”.

Staying with this test, now noted: coated 1 μg/ml, muteins from 1000 nM, read-out: EC Human CTGF1-2-huFc.
B4: the EC50 came to 8 nM.
For B5, the EC50 came to 17 nM.
On the same count and under the same terms, for B1 the value was 8.4 nM.
Same read-out and setting: the figure for B3 is 8.8 nM.

In the next test the target is T2, CTGF. In words: Specificity ELISA (CCN proteins), human CTGF. It counts as binding. Particulars: coated 1 μg/ml, muteins from 1000 nM. The method, then:
Binding of muteins to closely related proteins of CTGF was tested by an ELISA assay. In detail, a 384-well plate suitable for fluorescence measurements (Greiner FLUOTRAC™ 600, black flat bottom, high-binding) was coated with 20 μl of human CTGF or the other members of the CCN protein family at a concentration of 1 μg/ml in PBS over night at 4° C. After washing with PBS with 0.05% Tween 20, wells were blocked with 100 μl blocking buffer containing 0.1% Tween 20 and 2% BSA (PBS-T/BSA) for 1 h at room temperature. 20 μl of serially diluted muteins starting at 1000 nM were incubated in PBS-T/BSA for 1 h at room temperature (RT).
The residual supernatants were discarded and 20 μl HRP-labeled anti-NGAL or anti-Strep-Tag antibody was added at a predetermined optimal concentration in PBS-T/BSA and incubated for 1 h at RT. After washing, 20 μl fluorogenic HRP substrate (QuantaBlu, Thermo) was added to each well, and the reaction was allowed to proceed for 2 to 60 minutes. The fluorescence intensity of every well on the plate was read using a fluorescence microplate reader (Tecan). When the signal for human CTGF approached saturation, the cross reactivity to the other proteins was assessed.
Take B6: the “ELISA binding to HUMAN CTGF” value is “Binding”.
Still for that read-out and setting: the entry for B7 is “Binding”.
With B4, the “ELISA binding to HUMAN CTGF” value is reported as “Binding”.
The same measure, in the same setting: the entry for B5 is “Binding”; for B1 it is “Binding”.
Same read-out and setting: for B2 the value was “Binding”.
The same measure, in the same setting: the entry for B3 is “Binding”.
With B8, the “ELISA binding to HUMAN CTGF” value is reported as “Binding”.

The target of another test is T6, muCTGF domains 1 and 2 with human Fc tag (Mus musculus, UniProt P29268).
T6 construct: purchased Evitria
T6 sequence (P29268 with tags, fused parts or gaps): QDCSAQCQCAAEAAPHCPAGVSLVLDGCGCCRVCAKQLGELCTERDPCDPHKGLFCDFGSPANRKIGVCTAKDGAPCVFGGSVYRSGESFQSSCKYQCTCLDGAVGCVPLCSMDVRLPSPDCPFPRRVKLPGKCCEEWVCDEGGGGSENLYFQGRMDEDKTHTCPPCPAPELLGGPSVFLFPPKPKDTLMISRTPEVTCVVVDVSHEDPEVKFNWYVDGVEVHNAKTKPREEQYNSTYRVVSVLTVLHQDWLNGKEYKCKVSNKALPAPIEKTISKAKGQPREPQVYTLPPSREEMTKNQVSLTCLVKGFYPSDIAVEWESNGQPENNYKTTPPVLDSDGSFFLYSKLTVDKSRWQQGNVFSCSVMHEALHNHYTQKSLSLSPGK
Nature of the test: ELISA binding to CTGF fragments, murine CTGF domains 1 and 2. Conditions: coated 1 μg/ml, muteins from 1000 nM. As to the method:
as §1, §2
For B2, the “EC Murine CTGF1-2-huFc” value was “n.b”.

Still in this test, the particulars now being: coated 1 μg/ml, muteins from 1000 nM, read-out: EC Murine CTGF1-2-huFc.
On to B4, for which the EC50 came out at 5.8 nM.
As to B5, the EC50 worked out at 14 nM.
B1: the EC50 came to 17 nM.
Still for that read-out and setting: for B3 the value was 14 nM.

A further test addresses T3, Rat CTGF. In words: ELISA binding to rat CTGF (Example 9). Conditions: muteins from 1000 nM.
For B2, the “EC Rat CTGF” value is “weak”.

Still in this test, the particulars now being: muteins from 1000 nM, read-out: EC Rat CTGF.
As to B4, the EC50 was determined as 30 nM.
Take B5: the EC50 came out at 41 nM.
Still for that read-out and setting: for B1 the value was 20 nM; for B3, 23 nM.

Values taken from patent US20240228562A1, “NOVEL LIPOCALIN MUTEINS SPECIFIC FOR CONNECTIVE TISSUE GROWTH FACTOR (CTGF)” (PIERIS PHARMACEUTICALS GMBH, priority 2021, published 2024).
